B1: type 2 EBNA2 polypeptide T2 EBNA2_(348-422) [Epstein-Barr virus type 2 (AG876)] / BS69 coiled-coil MYND domain (BS69_(CC-MYND), amino acids 480-602) [human] (parent)
chain 1: SMPQLSPVVSLHQGQGPENSPTPGPSTAGPVCRVTPSATPDISPIHEPESSDSEEPPFLFPSDWYPPTLEPAELD
chain 2: DRMKSDHKRETERVVREALEKLRSEMEEEKRQAVNKAVANMQGEMDRKCKQVKEKCKEEFVEEIKKLATQHKQLISQTKKKQWCYNCEEEAMYHCCWNTSYCSIKCQQEHWHAEHKRTCRRKR

The variants in this assay derive from B1. Briefly: ITC. The following applies: with BS69 coiled-coil MYND domain (BS69_(CC-MYND), amino acids 480-602) [human], two-site model, 29 injections of 1.3 μl 0.3 mM EBNA2 polypeptide and 0.1 mM BS69CC-MYND in the cell.
The mark [1] stands for this setting: binding event 1 (KD1), parent: 9 nM.
[2] abbreviates: binding event 2 (KD2), parent: 91 nM.

Our source for the Kd values is article PMC6638984, “Increased association between Epstein-Barr virus EBNA2 from type 2 strains and the transcriptional repressor BS69 restricts EBNA2 activity” (PLoS Pathogens, 2019).

Take chain 1 S62D: the Kd runs as follows: under setting [1], 5 nM; under setting [2], 94 nM.
Consider chain 1 S62D P67A L69A P71A, for which the Kd reads like this: under setting [1], 8 nM; under setting [2], 200 nM.
